This test concerns the target SARS-CoV-2 (2019-nCoV) Spike S1-His Recombinant Protein (HPLC-verified), Sino Biological Catalog Number 40591-V08H (SARS-CoV-2) (UniProt P0DTC2).

In the case of “Galanthus nivalis agglutinin (GNA) (from UniProt P30617 24-128)”, the percent of S1 depleted at 15 minutes was greater than 90%.

These data come from patent US20240399042A1.
